Our source for the EC50, growth activity of VEGF on HUVEC (CCK-8, endothelial cell growth assay) and inhibitory activity against VEGF (HUVEC growth assay) values is US20100331250A1.

Experiment [1] addresses human VEGF165 (human) (UniProt P15692). In words: quantitative ELISA; serial concentrations of fusion protein mixed with 40 pM human VEGF165, detection with anti-human IgG Fc-HRP.
Experiment [2] shares this target. In words: cell-based or functional assay.

Sequence of UniProt P15692 (P15692 other isoform, or with tags, fused parts or gaps limits assumed): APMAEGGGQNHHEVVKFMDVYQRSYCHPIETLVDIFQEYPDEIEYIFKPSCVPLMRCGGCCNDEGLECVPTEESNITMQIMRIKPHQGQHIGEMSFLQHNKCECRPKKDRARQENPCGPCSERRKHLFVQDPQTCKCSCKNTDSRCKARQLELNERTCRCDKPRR

A word on the EC50: it is the concentration that produces a half-maximal response. Low readings indicate greater potency, high ones weaker potency. In the experiment with human VEGF165 (human) [1], VEGF-Trap (Fc fusion) showed an EC50 of 0.136 µg/mL. In the experiment with human VEGF165 (human) [2], this substance showed a growth activity of VEGF on HUVEC (CCK-8, endothelial cell growth assay) of 28 pM and an inhibitory activity against VEGF (HUVEC growth assay) of 14 pM.
